Results as given in publication PMC9947421.

Key:
Assay in all cases: AP-MS
[1] = molecular target: transcriptional co-activator with PDZ-binding motif (TAZ) (UniProt Q9GZV5); details: read off a plot
[2] = molecular target: poly(ADP-ribose) polymerase 1 (PARP1) (UniProt P09874)
[3] = molecular target: DNA-dependent protein kinase, catalytic subunit (PRKDC/DNAPKcs) (UniProt P78527)
[4] = molecular target: Yes-associated protein (YAP) (UniProt P46937); details: read off a plot
[5] = molecular target: X-ray repair cross-complementing protein 6 (XRCC6) (UniProt P12956); details: HEK293 cells
Chain of UniProt P12956 (P12956 whole entry): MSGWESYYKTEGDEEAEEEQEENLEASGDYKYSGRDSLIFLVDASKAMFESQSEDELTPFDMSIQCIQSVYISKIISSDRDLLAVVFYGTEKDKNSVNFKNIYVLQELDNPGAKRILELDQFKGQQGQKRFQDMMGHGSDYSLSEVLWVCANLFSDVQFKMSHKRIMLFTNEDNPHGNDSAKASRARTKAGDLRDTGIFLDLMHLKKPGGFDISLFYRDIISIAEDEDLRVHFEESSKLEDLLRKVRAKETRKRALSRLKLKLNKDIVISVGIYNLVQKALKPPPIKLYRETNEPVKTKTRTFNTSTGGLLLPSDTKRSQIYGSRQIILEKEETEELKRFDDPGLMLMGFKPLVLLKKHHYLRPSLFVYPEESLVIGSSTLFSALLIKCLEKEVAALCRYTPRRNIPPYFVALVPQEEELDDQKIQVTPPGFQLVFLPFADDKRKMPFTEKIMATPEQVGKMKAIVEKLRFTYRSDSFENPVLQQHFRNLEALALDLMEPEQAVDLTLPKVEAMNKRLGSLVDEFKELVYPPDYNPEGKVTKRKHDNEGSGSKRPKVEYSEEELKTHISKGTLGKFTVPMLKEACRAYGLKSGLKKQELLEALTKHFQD

[6] = molecular target: VGLL4 (UniProt Q14135); details: read off a plot
[7] = molecular target: Rap1-interacting factor 1 (RIF1) (UniProt Q5UIP0)
Chain of UniProt Q5UIP0 (Q5UIP0 whole entry): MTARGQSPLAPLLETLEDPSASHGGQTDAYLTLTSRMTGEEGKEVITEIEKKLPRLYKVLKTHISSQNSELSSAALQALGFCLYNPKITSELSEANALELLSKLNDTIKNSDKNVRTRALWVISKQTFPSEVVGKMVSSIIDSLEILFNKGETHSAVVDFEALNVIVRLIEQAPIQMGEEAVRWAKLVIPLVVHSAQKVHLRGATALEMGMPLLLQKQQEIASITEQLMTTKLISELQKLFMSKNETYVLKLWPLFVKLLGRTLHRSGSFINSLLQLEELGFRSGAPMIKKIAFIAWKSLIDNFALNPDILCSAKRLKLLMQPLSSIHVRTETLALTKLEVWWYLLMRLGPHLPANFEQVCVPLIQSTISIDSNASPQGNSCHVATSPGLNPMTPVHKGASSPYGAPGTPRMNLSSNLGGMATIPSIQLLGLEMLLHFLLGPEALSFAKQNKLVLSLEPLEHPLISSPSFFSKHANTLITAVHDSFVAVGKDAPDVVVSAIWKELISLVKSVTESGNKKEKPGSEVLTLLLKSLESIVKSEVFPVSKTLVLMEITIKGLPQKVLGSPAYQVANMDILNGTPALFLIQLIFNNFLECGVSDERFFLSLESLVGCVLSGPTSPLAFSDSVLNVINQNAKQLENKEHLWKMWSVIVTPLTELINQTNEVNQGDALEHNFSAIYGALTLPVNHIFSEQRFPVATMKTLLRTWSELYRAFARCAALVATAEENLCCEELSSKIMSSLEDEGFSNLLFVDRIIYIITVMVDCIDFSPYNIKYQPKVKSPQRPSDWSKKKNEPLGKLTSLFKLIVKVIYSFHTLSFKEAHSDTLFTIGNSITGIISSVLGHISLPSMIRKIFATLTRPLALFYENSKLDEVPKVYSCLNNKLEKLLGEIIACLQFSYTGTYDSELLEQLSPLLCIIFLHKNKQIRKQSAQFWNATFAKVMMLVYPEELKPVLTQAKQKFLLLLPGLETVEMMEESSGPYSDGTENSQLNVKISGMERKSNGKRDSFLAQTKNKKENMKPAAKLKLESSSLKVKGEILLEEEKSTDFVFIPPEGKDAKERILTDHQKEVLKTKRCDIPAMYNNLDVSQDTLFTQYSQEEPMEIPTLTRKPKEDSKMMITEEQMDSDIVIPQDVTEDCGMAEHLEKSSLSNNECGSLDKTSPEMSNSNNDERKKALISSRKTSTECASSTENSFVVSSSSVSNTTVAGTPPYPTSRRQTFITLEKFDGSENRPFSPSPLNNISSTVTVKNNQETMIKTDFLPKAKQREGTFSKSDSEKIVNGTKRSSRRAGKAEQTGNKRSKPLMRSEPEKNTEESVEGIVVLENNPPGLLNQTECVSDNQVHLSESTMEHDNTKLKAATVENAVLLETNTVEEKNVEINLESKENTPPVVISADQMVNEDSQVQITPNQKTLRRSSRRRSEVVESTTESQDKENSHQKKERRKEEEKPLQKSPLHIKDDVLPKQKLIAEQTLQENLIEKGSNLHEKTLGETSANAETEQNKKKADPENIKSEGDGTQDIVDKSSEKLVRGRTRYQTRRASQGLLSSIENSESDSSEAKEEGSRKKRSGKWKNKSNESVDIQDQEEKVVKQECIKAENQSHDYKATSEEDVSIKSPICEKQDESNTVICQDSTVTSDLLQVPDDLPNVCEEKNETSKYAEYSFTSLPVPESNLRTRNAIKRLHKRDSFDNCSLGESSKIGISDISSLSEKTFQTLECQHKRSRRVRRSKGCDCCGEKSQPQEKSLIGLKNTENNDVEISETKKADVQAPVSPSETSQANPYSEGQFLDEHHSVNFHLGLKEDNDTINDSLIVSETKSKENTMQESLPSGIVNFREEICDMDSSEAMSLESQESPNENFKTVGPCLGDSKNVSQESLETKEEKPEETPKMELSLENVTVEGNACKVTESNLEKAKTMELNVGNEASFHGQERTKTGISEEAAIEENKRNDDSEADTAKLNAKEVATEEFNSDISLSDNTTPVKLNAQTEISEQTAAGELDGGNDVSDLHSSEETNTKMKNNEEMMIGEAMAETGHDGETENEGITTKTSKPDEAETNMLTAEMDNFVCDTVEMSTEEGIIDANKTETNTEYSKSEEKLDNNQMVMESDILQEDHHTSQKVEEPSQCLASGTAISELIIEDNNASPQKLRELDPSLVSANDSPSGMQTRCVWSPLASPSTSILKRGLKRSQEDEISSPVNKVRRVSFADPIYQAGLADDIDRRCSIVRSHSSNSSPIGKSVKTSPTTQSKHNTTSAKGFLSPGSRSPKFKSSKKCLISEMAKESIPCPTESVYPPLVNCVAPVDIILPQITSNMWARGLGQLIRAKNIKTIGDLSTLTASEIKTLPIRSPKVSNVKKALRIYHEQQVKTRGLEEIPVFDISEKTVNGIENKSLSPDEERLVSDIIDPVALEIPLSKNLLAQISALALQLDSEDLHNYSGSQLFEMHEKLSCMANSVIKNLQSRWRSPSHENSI

Chain of UniProt P09874 (P09874 whole entry): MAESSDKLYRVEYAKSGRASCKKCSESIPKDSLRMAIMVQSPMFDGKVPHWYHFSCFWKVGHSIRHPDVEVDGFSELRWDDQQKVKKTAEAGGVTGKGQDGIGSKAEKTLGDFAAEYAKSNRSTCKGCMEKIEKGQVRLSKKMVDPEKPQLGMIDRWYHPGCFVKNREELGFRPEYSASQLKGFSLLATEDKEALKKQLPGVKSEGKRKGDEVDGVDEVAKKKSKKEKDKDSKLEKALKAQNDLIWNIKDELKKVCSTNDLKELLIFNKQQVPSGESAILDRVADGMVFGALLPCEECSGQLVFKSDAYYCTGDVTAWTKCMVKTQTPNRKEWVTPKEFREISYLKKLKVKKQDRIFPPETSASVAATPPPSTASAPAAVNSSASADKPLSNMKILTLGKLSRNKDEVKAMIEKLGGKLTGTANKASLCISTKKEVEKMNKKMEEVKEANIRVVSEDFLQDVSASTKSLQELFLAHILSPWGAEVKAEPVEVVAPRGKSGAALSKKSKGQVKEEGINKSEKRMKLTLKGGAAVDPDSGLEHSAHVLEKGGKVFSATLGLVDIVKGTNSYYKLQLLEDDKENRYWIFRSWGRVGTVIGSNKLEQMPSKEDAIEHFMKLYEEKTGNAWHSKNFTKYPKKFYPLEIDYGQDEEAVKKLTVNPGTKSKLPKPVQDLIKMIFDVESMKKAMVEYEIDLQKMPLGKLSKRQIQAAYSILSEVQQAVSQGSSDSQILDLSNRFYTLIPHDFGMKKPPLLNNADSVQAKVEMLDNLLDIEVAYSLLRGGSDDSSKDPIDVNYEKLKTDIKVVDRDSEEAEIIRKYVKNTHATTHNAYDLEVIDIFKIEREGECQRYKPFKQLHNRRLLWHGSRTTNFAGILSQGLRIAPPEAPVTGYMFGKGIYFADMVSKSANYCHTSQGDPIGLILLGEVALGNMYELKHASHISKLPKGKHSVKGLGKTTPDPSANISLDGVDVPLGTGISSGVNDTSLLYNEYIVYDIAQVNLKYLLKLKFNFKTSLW
Chain of UniProt Q9GZV5 (Q9GZV5 whole entry): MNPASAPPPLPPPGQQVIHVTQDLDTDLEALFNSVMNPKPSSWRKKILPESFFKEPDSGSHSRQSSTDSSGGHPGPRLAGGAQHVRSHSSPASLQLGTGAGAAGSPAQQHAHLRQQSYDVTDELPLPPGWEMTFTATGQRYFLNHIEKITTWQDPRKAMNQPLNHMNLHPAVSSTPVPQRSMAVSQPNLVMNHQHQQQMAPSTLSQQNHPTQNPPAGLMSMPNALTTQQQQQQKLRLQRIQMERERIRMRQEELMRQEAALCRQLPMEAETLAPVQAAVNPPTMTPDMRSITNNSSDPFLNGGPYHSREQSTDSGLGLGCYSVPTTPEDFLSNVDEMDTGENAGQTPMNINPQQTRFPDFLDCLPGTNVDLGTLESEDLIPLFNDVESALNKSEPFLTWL
Chain of UniProt P46937 (P46937 whole entry): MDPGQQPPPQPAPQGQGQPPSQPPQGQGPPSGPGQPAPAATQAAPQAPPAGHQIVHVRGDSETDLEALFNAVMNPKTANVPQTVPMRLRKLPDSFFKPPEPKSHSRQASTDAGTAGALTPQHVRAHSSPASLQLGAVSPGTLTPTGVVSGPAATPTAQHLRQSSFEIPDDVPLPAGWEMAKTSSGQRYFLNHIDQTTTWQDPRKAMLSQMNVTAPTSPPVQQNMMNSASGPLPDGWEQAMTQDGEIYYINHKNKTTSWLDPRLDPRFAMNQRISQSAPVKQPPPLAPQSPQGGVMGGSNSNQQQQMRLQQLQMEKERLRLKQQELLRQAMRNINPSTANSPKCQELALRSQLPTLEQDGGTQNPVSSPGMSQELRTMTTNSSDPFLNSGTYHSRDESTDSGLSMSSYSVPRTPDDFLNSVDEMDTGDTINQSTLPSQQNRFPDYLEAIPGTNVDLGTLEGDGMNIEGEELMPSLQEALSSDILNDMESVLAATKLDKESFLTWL

- response (average sum PSMs) ([1]; Detroit 562 cells, parent: est. 170): 250
- response (average sum PSMs) ([1]; HEK293 cells, parent: est. 23): 22
- response ([2]; Detroit 562 cells, replicate TEAD3 mut_1 (parent: TEAD3_WT_1), parent: 90): 6 PSMs
- response ([2]; Detroit 562 cells, replicate TEAD3 mut_2 (parent: TEAD3_WT_2), parent: 76): 5 PSMs
- response ([2]; Detroit 562 cells, replicate TEAD3 mut_3 (parent: TEAD3_WT_3), parent: 87): 8 PSMs
- response ([2]; HEK293 cells, replicate TEAD3 mut_1 (parent: TEAD3_WT_1), parent: 380): 1 PSMs
- response ([2]; HEK293 cells, replicate TEAD3 mut_2 (parent: TEAD3_WT_2), parent: 624): 3 PSMs
- response ([2]; HEK293 cells, replicate TEAD3 mut_3 (parent: TEAD3_WT_3), parent: 950): 4 PSMs
- response ([3]; Detroit 562 cells, replicate TEAD3 mut_1 (parent: TEAD3_WT_1), parent: 232): 132 PSMs
- response ([3]; Detroit 562 cells, replicate TEAD3 mut_2 (parent: TEAD3_WT_2), parent: 898): 496 PSMs
- response ([3]; Detroit 562 cells, replicate TEAD3 mut_3 (parent: TEAD3_WT_3), parent: 658): 396 PSMs
- response ([3]; HEK293 cells, replicate TEAD3 mut_1 (parent: TEAD3_WT_1), parent: 258): 167 PSMs
- response ([3]; HEK293 cells, replicate TEAD3 mut_2 (parent: TEAD3_WT_2), parent: 223): 195 PSMs
- response ([3]; HEK293 cells, replicate TEAD3 mut_3 (parent: TEAD3_WT_3), parent: 216): 230 PSMs
- response (average sum PSMs) ([4]; Detroit 562 cells, parent: est. 620): 960
- response (average sum PSMs) ([4]; HEK293 cells, parent: est. 200): 230
- response ([5]; replicate TEAD3 mut_1 (parent: TEAD3_WT_1), parent: 56): 1 PSMs
- response ([5]; replicate TEAD3 mut_3 (parent: TEAD3_WT_3), parent: 92): 1 PSMs
- response (average sum PSMs) ([6]; Detroit 562 cells, parent: est. 90): 75
- response (average sum PSMs) ([6]; HEK293 cells, parent: est. 150): 190
- response ([7]; Detroit 562 cells, replicate TEAD3 mut_1 (parent: TEAD3_WT_1), parent: 302): 118 PSMs
- response ([7]; Detroit 562 cells, replicate TEAD3 mut_2 (parent: TEAD3_WT_2), parent: 297): 45 PSMs
- response ([7]; Detroit 562 cells, replicate TEAD3 mut_3 (parent: TEAD3_WT_3), parent: 331): 26 PSMs
- response ([7]; HEK293 cells, replicate TEAD3 mut_1): 2 PSMs
- response ([7]; HEK293 cells, replicate TEAD3 mut_2 (parent: TEAD3_WT_2), parent: 3): 1 PSMs
Substance: WT TEAD3-Myc/Flag (from UniProt Q99594) … -> … (R>N; K>N; R>N; K>N; K>N; V>N; R>N; residue numbers not printed)
